Results on 5 sequences are retold here after the supplement of paper PMC5998384.

Data set [1] deals with HeLa Kyoto. The data set can be described thus: solubility change mitosis vs G1/S (difference of NP-40 vs SDS log2 ratios) (log2 ratio difference); higher = more soluble in mitosis.
Data set [2] has as its system HeLa Kyoto. Briefly: melting temperature (median over replicates), in situ; higher = more thermally stable.
Data set [3] deals with HeLa Kyoto. The data set can be described thus: solubility in G1/S (NP-40 vs SDS abundance) (log2 ratio); higher = more soluble. The note with it: cell cycle stage: G1/S.
Data set [4] concerns HeLa Kyoto. Briefly: thermal stability score vs G1/S (z-score of summed log2 fold changes over temperatures); higher = more thermally stable than in G1/S.
[5] abbreviates: cell cycle stage: early G1 (4.5 h after nocodazole release).
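Throughout, for melting temperature (median over replicates), in situ: HeLa Kyoto cells synchronized by double thymidine or nocodazole block, proteins quantified by TMT10plex mass spectrometry, three independent biological replicates.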
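Throughout, for solubility change mitosis vs G1/S (difference of NP-40 vs SDS log2 ratios): synchronized HeLa Kyoto cells (double thymidine block for G1/S, nocodazole release for mitosis), protein amounts in NP-40 versus SDS lysates quantified by mass spectrometry, three biological replicates.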
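Throughout, for solubility in G1/S (NP-40 vs SDS abundance): HeLa Kyoto cells arrested at G1/S by double thymidine block, proteins quantified by TMT10plex mass spectrometry in mild NP-40 versus SDS extracts, three biological replicates.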
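Throughout, for thermal stability score vs G1/S (z-score of summed log2 fold changes over temperatures): synchronized HeLa Kyoto cells, proteins quantified by TMT10plex mass spectrometry, three biological replicates, mitosis taken 0.5 h after nocodazole release, G1/S directly after double thymidine block.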

Turning to “MSENSSDSDSSCGWTVISHEGSDIEMLNSVTPTDSCEPAPECSSLEQEELQALQIEQGESSQNGTVLMEETAYPALEETSSTIEAEEQKIPEDSIYIGTASDDSDIVTLEPPKLEEIGNQEVVIVEEAQSSEDFNMGSSSSSQYTFCQPETVFSSQPSDDESSSDETSNQPSPAFRRRRARKKTVSASESEDRLVAEQETEPSKELSKRQFSSGLNKCVILALVIAISMGFGHFYGTIQIQKRQQLVRKIHEDELNDMKDYLSQCQQEQESFIDYKSLKENLARCWTLTEAEKMSFETQKTNLATENQYLRVSLEKEEKALSSLQEELNKLREQIRILEDKGTSTELVKENQKLKQHLEEEKQKKHSFLSQRETLLTEAKMLKRELERERLVTTALRGELQQLSGSQLHGKSDSPNVYTEKKEIAILRERLTELERKLTFEQQRSDLWERLYVEAKDQNGKQGTDGKKKGGRGSHRAKNKSKETFLGSVKETFDAMKNSTKEFVRHHKEKIKQAKEAVKENLKKFSDSVKSTFRHFKDTTKNIFDEKGNKRFGATKEAAEKPRTVFSDYLHPQYKAPTENHHNRGPTMQNDGRKEKPVHFKEFRKNTNSKKCSPGHDCRENSHSFRKACSGVFDCAQQESMSLFNTVVNPIRMDEFRQIIQRYMLKELDTFCHWNELDQFINKFFLNGVFIHDQKLFTDFVNDVKDYLRNMKEYEVDNDGVFEKLDEYIYRHFFGHTFSPPYGPRSVYIKPCHYSSL [CCPG1]”, the “solubility change mitosis (log2)” value in the data set on HeLa Kyoto [1] is -0.0492. Moreover, the melting temperature with HeLa Kyoto [2] (cell cycle stage: G1/S) and in the data set on HeLa Kyoto [2] (cell cycle stage: mitosis) was 53.6 °C each time. Also, in the data set with HeLa Kyoto [3], the “solubility in G1/S (log2)” value was -0.321. Also, the thermal stability score in the data set with HeLa Kyoto [4] (setting [5]) worked out at 1.39; in the data set on HeLa Kyoto [4] (cell cycle stage: mitosis), 2.71.
As for “MSESSSKSSQPLASKQEKDGTEKRGRGRPRKQPPVSPGTALVGSQKEPSEVPTPKRPRGRPKGSKNKGAAKTRKTTTTPGRKPRGRPKKLEKEEEEGISQESSEEEQ [HMGA1]”, the “solubility change mitosis (log2)” value in the data set with HeLa Kyoto [1] was found to be 1.62. For the same sequence, the melting temperature with HeLa Kyoto [2] (cell cycle stage: mitosis) amounted to 57.6 °C. The “solubility in G1/S (log2)” value in the data set with HeLa Kyoto [3] came out at 0.583. Besides, the thermal stability score is -6.52 in the data set with HeLa Kyoto [4] (setting [5]) and -8.11 with HeLa Kyoto [4] (cell cycle stage: mitosis).
Turning to “MSEVKSRKKSGPKGAPAAEPGKRSEGGKTPVARSSGGGGWADPRTCLSLLSLGTCLGLAWFVFQQSEKFAKVENQYQLLKLETNEFQQLQSKISLISEKWQKSEAIMEQLKSFQIIAHLKRLQEEINEVKTWSNRITEKQDILNNSLTTLSQDITKVDQSTTSMAKDVGLKITSVKTDIRRISGLVTDVISLTDSVQELENKIEKVEKNTVKNIGDLLSSSIDRTATLRKTASENSQRINSVKKTLTELKSDFDKHTDRFLSLEGDRAKVLKTVTFANDLKPKVYNLKKDFSRLEPLVNDLTLRIGRLVTDLLQREKEIAFLSEKISNLTIVQAEIKDIKDEIAHISDMN [IKBIP]”, the “solubility change mitosis (log2)” value in the data set on HeLa Kyoto [1] worked out at 0.165. For the same sequence, the melting temperature is 54.1 °C with HeLa Kyoto [2] (cell cycle stage: G1/S) and 55.2 °C with HeLa Kyoto [2] (cell cycle stage: mitosis). The “solubility in G1/S (log2)” value with HeLa Kyoto [3] is 0.751. The thermal stability score in the data set with HeLa Kyoto [4] (setting [5]) worked out at 2.64; in the data set with HeLa Kyoto [4] (cell cycle stage: mitosis), 4.37.
In the case of “MSEWMKKGPLEWQDYIYKEVRVTASEKNEYKGWVLTTDPVSANIVLVNFLEDGSMSVTGIMGHAVQTVETMNEGDHRVREKLMHLFTSGDCKAYSPEDLEERKNSLKKWLEKNHIPITEQGDAPRTLCVAGVLTIDPPYGPENCSSSNEIILSRVQDLIEGHLTASQ [GEMIN6]”, the “solubility change mitosis (log2)” value with HeLa Kyoto [1] turned out to be 0.0835. Moreover, the melting temperature in the data set on HeLa Kyoto [2] (cell cycle stage: G1/S) is 53.6 °C; in the data set on HeLa Kyoto [2] (cell cycle stage: mitosis), 52.3 °C. Also, the “solubility in G1/S (log2)” value with HeLa Kyoto [3] came to 0.271. The thermal stability score is -0.4 with HeLa Kyoto [4] (setting [5]) and -2.06 in the data set with HeLa Kyoto [4] (cell cycle stage: mitosis).
For the sequence “MSFIPVAEDSDFPIHNLPYGVFSTRGDPRPRIGVAIGDQILDLSIIKHLFTGPVLSKHQDVFNQPTLNSFMGLGQAAWKEARVFLQNLLSVSQARLRDDTELRKCAFISQASATMHLPATIGDYTDFYSSRQHATNVGIMFRDKENALMPNWLHLPVGYHGRASSVVVSGTPIRRPMGQMKPDDSKPPVYGACKLLDMELEMAFFVGPGNRLGEPIPISKAHEHIFGMVLMNDWSARDIQKWEYVPLGPFLGKSFGTTVSPWVVPMDALMPFAVPNPKQDPRPLPYLCHDEPYTFDINLSVNLKGEGMSQAATICKSNFKYMYWTMLQQLTHHSVNGCNLRPGDLLASGTISGPEPENFGSMLELSWKGTKPIDLGNGQTRKFLLDGDEVIITGYCQGDGYRIGFGQCAGKVLPALLPS [FAH]”, the “solubility change mitosis (log2)” value in the data set with HeLa Kyoto [1] was -0.0884. In addition, the melting temperature in the data set on HeLa Kyoto [2] (cell cycle stage: G1/S) turned out to be 58.7 °C; in the data set with HeLa Kyoto [2] (cell cycle stage: mitosis), 59 °C. Also, the “solubility in G1/S (log2)” value in the data set with HeLa Kyoto [3] stood at 0.207. Besides, the thermal stability score in the data set with HeLa Kyoto [4] (setting [5]) was -0.791; in the data set with HeLa Kyoto [4] (cell cycle stage: mitosis), -0.764.
